# From US7217865B2, “Transgenic high tryptophan plants” (Monsanto Technology LLC, priority 2001, dated 2007)
# Numbering of substitutions follows the chain as printed. Numbers in names are those of the source. Like-named read-outs stand apart in the source and are kept apart here.
# B1: F298A (protein)
# chain: MVTIIQDDGAETYETKGGIQVSRKRRPTDYANAIDNYIEKLDSHRGAVFSSNYEYPGRYTRWDTAIVDPPLGISCFGRKMWIEAYNGRGEVLLDFITEKLKATPDLTLGASSTRRLDLTVNEPDRVFTEEERSKIPTVFTALRAIVDLFYSSADSAIGLFGAFGYDLAFQFDAIKLSLARPEDQRDMVLFLPDEILVVDHYSAKAWIDRYDFEKDGMTTDGKSSDITPDPFKTTDTIPPKGDHRPGEYSELVVKAKESFRRGDLFEVVPGQKFMERCESNPSAISRRLKAINPSPYSAFINLGDQEYLVGASPEMFVRVSGRRIETCPISGTIKRGDDPIADSEQILKLLNSKKDESELTMCSDVDRNDKSRVCEPGSVKVIGRRQIEMYSRLIHTVDHIEGRLRDDMDAFDGFLSHAWAVTVTGAPKLWAMRFIEGHEKSPRAWYGGAIGMVGFNGDMNTGLTLRTIRIKDGIAEVRAGATLLNDSNPQEEEAETELKASAMISAIRDAKGTNSAATKRDAAKVGTGVKILLVDHEDSFVHTLANYFRQTGATVSTVRSPVAADVFDRFQPDLVVLSPGPGSPTDFDCKATIKAARARDLPIFGVCLGLQALAEAYGGELRQLAVPMHGKPSRIRVLEPGLVFSGLGKEVTVGRYHSIFADPATLPRDFIITAESEDGTIMGIEHAKEPVAAVQFHPESIMTLGQDAGMRMIENVVVHLTRKAKTKAA
# B2: F298W (protein)
# chain: B1 chain with A298W
# Experiments:
# [1] = system: C=C(O[C@@H]1C=C(C(=O)O)C=C[C@H]1O)C(=O)O; assay: Anthranilate synthase enzyme assay and kinetic analysis, wild type; format: biochemical, Agrobacterium tumefaciens; details: other: wild type, 25° C., pH 7.0, 10 mM L-glutamine, 2.5–100 μM chorismate
# Method: (§1) Agrobacterium tumefaciens AS wild type and mutant enzymes were expressed in E. coli as described in Example 1. The purification of all the Agrobacterium tumefaciens AS enzymes, including wild type and mutants therof, was performed at 4° C. The cells (approximate wet weight of 1 g) were suspended in 20 ml of purification buffer (50 mM potassium phosphate, pH […], 10 mM 2-mercaptoethanol, 10% glycerol) and lysed by ultrasonication (Branson sonifier Cell Disruptor, W185). Supernatant was collected after centrifugation of the homogenate at 20,000× g for 15 min. The supernatant was subjected to ammonium sulfate fractionation (30 to 65% saturation). The precipitate was collected after centrifugation at 20,000× g for […] and dissolved in 3 ml of the purification buffer and then loaded as a whole on an Econo-Pac 10DG desalting column, pre-equilibrated with the same buffer. Fractions containing the enzyme were detected by the developed assay and pooled. The pooled enzyme (4.3 mls) was loaded on a 10 ml DEAE Sephacel (Pharmacia Biotech) column (1.5×7.5 cm) equilibrated with the same buffer. The column was washed with 30 ml of the purification buffer and the enzyme was eluted with 30 ml of 50 mM NaCl in the same buffer. Fractions containing high AS activity were pooled and precipitated by 65% ammonium sulfate saturation and isolated and desalted as above. Fractions containing the enzyme were pooled and stored at −80° C.
# (§2) The standard assay for Agrobacterium tumefaciens AS was performed at 25° C. in an assay buffer containing 100 mM potassium phosphate, pH 7.0, 1 0 mM MgCl2, 1 mM dithiothreitol, 200 μM chorismate and 10 mM L-glutamine. The reaction was started by adding 30 μl of enzyme to the reaction mixture and mixing. The formation of anthranilate was directly monitored by the absorbance increase at […] for 3 min. Initial rate of reaction was calculated as unit absorbance increase per second based on the slope of the absorbance change over the reaction time. Km for chorismate (Km^Cho) was determined in the total volume of 1 ml assay buffer containing 100 mM potassium phosphate, pH 7.0, 10 mM MgCl2, 1 mM dithiothreitol with 10 mM L-glutamine and varying the concentration of chorismate between 2.5–100 μM chorismate. The Km for glutamine (Km^Gln) was determined in the total volume of 1 ml assay buffer containing 100 mM potassium phosphate, pH 7.0, 10 mM MgCl2, 1 mM dithiothreitol with 200 μM chorismate and varying the concentration of L-glutamine between 0.1–2 mM L-glutamine. IC50 for tryptophan (IC50TrP) was determined with in the total volume of 1 ml assay buffer containing 100 mM potassium phosphate, pH 7.0, 10 mM MgCl2, 1 mM dithiothreitol, 10 mM L-glutamine, 200 μM chorismate and varying the concentration of L-tryptophan between 0.1–10 mM L-tryptophan. Kinetic parameters and IC50 of AS were calculated after fitting the data to a non-linear regression program (GraFit).
# NC(=O)CC[C@H](N)C(=O)O [2] = assay: as above; format: biochemical, Agrobacterium tumefaciens; details: other: wild type, pH 7.0, 200 μM chorismate, 0.1–2 mM L-glutamine, 25.0 °C
# Method: as §1, §2
# [3] = system: C=C(O[C@@H]1C=C(C(=O)O)C=C[C@H]1O)C(=O)O; assay: Anthranilate synthase enzyme assay and kinetic analysis, N52F mutant; format: biochemical, Agrobacterium tumefaciens; details: other: N52F, pH 7.0, 10 mM L-glutamine, 2.5–100 μM chorismate, 25.0 °C
# From the text: (§3) Site directed mutagenesis was used to generate ten single amino acid substitutions six sites. The mutations were introduced into the Agrobacterium tumefaciens AS in pMON34705 using the QuikChange™ Site-Directed Mutagenesis Kit (Stratagene). The primers used for site directed mutagenesis were SEQ ID NO:9–42 (FIG. 7; F=forward, R=reverse). Each primer sequence is specific for alteration of the nucleic acid at a specific location in the sequence and thus changing the encoded codon to code for a new amino acid. For example, S51C designates a change from serine to cysteine at amino acid position 51 in the Agrobacterium tumefaciens AS peptide sequence.
# (§4) Following mutagenesis the sequence of the entire gene was reconfirmed and the variants expressed and purified from E. coli as described below for the wild type enzyme. The resultant plasmids comprising mutant Agrobacterium tumefaciens AS are suitably cloned into a plasmid for overproduction of protein using the T7 expression system as described in Example 1.
# as §1
# (§5) The standard assay for Agrobacterium tumefaciens AS was performed at 25° C. in an assay buffer containing 100 mM potassium phosphate, pH 7.0, 1 0 mM MgCl2, 1 mM dithiothreitol, 200 μM chorismate and 10 mM L-glutamine. The reaction was started by adding 30 μl of enzyme to the reaction mixture and mixing. The formation of anthranilate was directly monitored by the absorbance increase at […] for 3 min. Initial rate of reaction was calculated as unit absorbance increase per second based on the slope of the absorbance change over the reaction time. Km for chorismate (Km^Cho) was determined in the total volume of 1 ml assay buffer containing 100 mM potassium phosphate, pH 7.0, 10 mM MgCl2, 1 mM dithiothreitol with 10 mM L-glutamine and varying the concentration of chorismate between 2.5–100 μM chorismate. […] Kinetic parameters and IC50 of AS were calculated after fitting the data to a non-linear regression program (GraFit).
# NC(=O)CC[C@H](N)C(=O)O [4] = assay: as above; format: biochemical, Agrobacterium tumefaciens; details: other: N52F, pH 7.0, 200 μM chorismate, 0.1–2 mM L-glutamine, 25.0 °C
# From the text: as §3, §4, §1, §5
# [5] = system: C=C(O[C@@H]1C=C(C(=O)O)C=C[C@H]1O)C(=O)O; assay: Anthranilate synthase enzyme assay and kinetic analysis, P293A mutant; format: biochemical, Agrobacterium tumefaciens; details: other: P293A, pH 7.0, 10 mM L-glutamine, 2.5–100 μM chorismate, 25.0 °C
# From the text: as §3, §4, §1, §5
# NC(=O)CC[C@H](N)C(=O)O [6] = assay: as above; format: biochemical, Agrobacterium tumefaciens; details: other: P293A, pH 7.0, 200 μM chorismate, 0.1–2 mM L-glutamine, 25.0 °C
# From the text: as §3, §4, §1, §5
# [7] = system: C=C(O[C@@H]1C=C(C(=O)O)C=C[C@H]1O)C(=O)O; assay: Anthranilate synthase enzyme assay and kinetic analysis, P293G mutant; format: biochemical, Agrobacterium tumefaciens; details: other: P293G, pH 7.0, 10 mM L-glutamine, 2.5–100 μM chorismate, 25.0 °C
# From the text: as §3, §4, §1, §5
# NC(=O)CC[C@H](N)C(=O)O [8] = assay: as above; format: biochemical, Agrobacterium tumefaciens; details: other: P293G, pH 7.0, 200 μM chorismate, 0.1–2 mM L-glutamine, 25.0 °C
# From the text: as §3, §4, §1, §5
# [9] = system: C=C(O[C@@H]1C=C(C(=O)O)C=C[C@H]1O)C(=O)O; assay: Anthranilate synthase enzyme assay and kinetic analysis, S50K mutant; format: biochemical, Agrobacterium tumefaciens; details: other: S50K, pH 7.0, 10 mM L-glutamine, 2.5–100 μM chorismate, 25.0 °C
# From the text: as §3, §4, §1, §5
# NC(=O)CC[C@H](N)C(=O)O [10] = assay: as above; format: biochemical, Agrobacterium tumefaciens; details: other: S50K, pH 7.0, 200 μM chorismate, 0.1–2 mM L-glutamine, 25.0 °C
# From the text: as §3, §4, §1, §5
# [11] = system: C=C(O[C@@H]1C=C(C(=O)O)C=C[C@H]1O)C(=O)O; assay: Anthranilate synthase enzyme assay and kinetic analysis, S51C mutant; format: biochemical, Agrobacterium tumefaciens; details: other: S51C, pH 7.0, 10 mM L-glutamine, 2.5–100 μM chorismate, 25.0 °C
# From the text: as §3, §4, §1, §5
# NC(=O)CC[C@H](N)C(=O)O [12] = assay: as above; format: biochemical, Agrobacterium tumefaciens; details: other: S51C, pH 7.0, 200 μM chorismate, 0.1–2 mM L-glutamine, 25.0 °C
# From the text: as §3, §4, §1, §5
# [13] = system: C=C(O[C@@H]1C=C(C(=O)O)C=C[C@H]1O)C(=O)O; assay: Anthranilate synthase enzyme assay and kinetic analysis, S51F mutant; format: biochemical, Agrobacterium tumefaciens; details: other: S51F, pH 7.0, 10 mM L-glutamine, 2.5–100 μM chorismate, 25.0 °C
# From the text: as §3, §4, §1, §5
# NC(=O)CC[C@H](N)C(=O)O [14] = assay: as above; format: biochemical, Agrobacterium tumefaciens; details: other: S51F, pH 7.0, 200 μM chorismate, 0.1–2 mM L-glutamine, 25.0 °C
# From the text: as §3, §4, §1, §5
# [15] = system: C=C(O[C@@H]1C=C(C(=O)O)C=C[C@H]1O)C(=O)O; assay: Anthranilate synthase enzyme assay and kinetic analysis, V48F mutant; format: biochemical, Agrobacterium tumefaciens; details: other: V48F, pH 7.0, 10 mM L-glutamine, 2.5–100 μM chorismate, 25.0 °C
# From the text: as §3, §4, §1, §5
# NC(=O)CC[C@H](N)C(=O)O [16] = assay: as above; format: biochemical, Agrobacterium tumefaciens; details: other: V48F, pH 7.0, 200 μM chorismate, 0.1–2 mM L-glutamine, 25.0 °C
# From the text: as §3, §4, §1, §5
# [17] = system: Agrobacterium tumefaciens AS; assay: Anthranilate synthase enzyme assay and kinetic analysis of purified enzymes; format: biochemical; details: for IC50: inhibition by L-tryptophan
# Method: as §1, §2
# [18] = Km for chorismate, 10 mM L-glutamine, pH 7.0, 25° C., read-out: Km^Cho
# [19] = Km for glutamine, 200 μM chorismate, pH 7.0, read-out: Km^Gln
# [20] = 10 mM L-glutamine, 200 μM chorismate
molecule,measurement,setting,value
"Agrobacterium tumefaciens anthranilate synthase (AgroAS), wild type, SEQ ID NO:4 (Agrobacterium fabrum str. C58)",Km,[1],8.0 µM
same,kcat,[1],0.43 s⁻¹
same,kcat/Km,[1],53700 M⁻¹ s⁻¹
same,Km,NC(=O)CC[C@H](N)C(=O)O [2],110 µM
"Agrobacterium tumefaciens anthranilate synthase variant N52F, SEQ ID NO:62 (Agrobacterium fabrum str. C58; N52F)",Km,[3],5.5 µM
same,kcat,[3],0.21 s⁻¹
same,kcat/Km,[3],38200 M⁻¹ s⁻¹
same,Km,NC(=O)CC[C@H](N)C(=O)O [4],40 µM
"Agrobacterium tumefaciens anthranilate synthase variant P293A, SEQ ID NO:63 (Agrobacterium fabrum str. C58; P293A)",Km,[5],24 µM
same,kcat,[5],0.35 s⁻¹
same,kcat/Km,[5],14600 M⁻¹ s⁻¹
same,Km,NC(=O)CC[C@H](N)C(=O)O [6],160 µM
"Agrobacterium tumefaciens anthranilate synthase variant P293G, SEQ ID NO:64 (Agrobacterium fabrum str. C58; P293G)",Km,[7],33 µM
same,kcat,[7],0.48 s⁻¹
same,kcat/Km,[7],14500 M⁻¹ s⁻¹
same,Km,NC(=O)CC[C@H](N)C(=O)O [8],70 µM
"Agrobacterium tumefaciens anthranilate synthase variant S50K, SEQ ID NO:69 (Agrobacterium fabrum str. C58; S50K)",Km,[9],13 µM
same,kcat,[9],0.13 s⁻¹
same,kcat/Km,[9],10000 M⁻¹ s⁻¹
same,Km,NC(=O)CC[C@H](N)C(=O)O [10],10 µM
"Agrobacterium tumefaciens anthranilate synthase variant S51C, SEQ ID NO:61 (Agrobacterium fabrum str. C58; S51C)",Km,[11],2.8 µM
same,kcat,[11],0.15 s⁻¹
same,kcat/Km,[11],53600 M⁻¹ s⁻¹
same,Km,NC(=O)CC[C@H](N)C(=O)O [12],80 µM
"Agrobacterium tumefaciens anthranilate synthase variant S51F, SEQ ID NO:60 (Agrobacterium fabrum str. C58; S51F)",Km,[13],10 µM
same,kcat,[13],0.08 s⁻¹
same,kcat/Km,[13],8000 M⁻¹ s⁻¹
same,Km,NC(=O)CC[C@H](N)C(=O)O [14],60 µM
"Agrobacterium tumefaciens anthranilate synthase variant V48F, SEQ ID NO:58 (Agrobacterium fabrum str. C58; V48F)",Km,[15],4.5 µM
same,kcat,[15],0.24 s⁻¹
same,kcat/Km,[15],53300 M⁻¹ s⁻¹
same,Km,NC(=O)CC[C@H](N)C(=O)O [16],80 µM
B1,kcat,[17],0.46 s⁻¹
same,Km,[17]; [18],9.2 µM
same,Km,[17]; [19],100 µM
same,IC50,[17]; [20],5.5 µM
B2,kcat,[17],0.44 s⁻¹
same,Km,[17]; [18],18 µM
same,Km,[17]; [19],140 µM
same,IC50,[17]; [20],450 µM
